Assay results published in PMC9536298.

Experiments:
[1] = target: survival motor neuron protein (SMN), endogenous human (human (endogenous in human fibroblasts)) (UniProt Q16637); assay: co-IP
[2] = target: zinc finger protein ZPR1, endogenous human (human (endogenous in HeLa and human fibroblasts)) (UniProt O75312); assay: co-IP
Chain of zinc finger protein ZPR1, endogenous human (human (endogenous in HeLa and human fibroblasts)) (O75312 whole entry): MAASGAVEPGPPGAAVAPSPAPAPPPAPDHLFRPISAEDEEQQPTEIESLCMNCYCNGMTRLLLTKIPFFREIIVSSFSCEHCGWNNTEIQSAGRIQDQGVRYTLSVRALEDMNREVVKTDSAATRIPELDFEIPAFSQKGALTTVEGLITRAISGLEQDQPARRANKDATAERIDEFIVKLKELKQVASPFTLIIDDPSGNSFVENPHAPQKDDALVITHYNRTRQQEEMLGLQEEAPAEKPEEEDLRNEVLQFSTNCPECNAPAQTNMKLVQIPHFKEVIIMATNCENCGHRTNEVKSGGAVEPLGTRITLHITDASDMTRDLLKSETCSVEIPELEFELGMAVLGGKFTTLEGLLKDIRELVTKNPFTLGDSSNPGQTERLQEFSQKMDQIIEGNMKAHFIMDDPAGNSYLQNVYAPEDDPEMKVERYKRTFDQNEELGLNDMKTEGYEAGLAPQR

Chain of survival motor neuron protein (SMN), endogenous human (human (endogenous in human fibroblasts)) (Q16637 whole entry): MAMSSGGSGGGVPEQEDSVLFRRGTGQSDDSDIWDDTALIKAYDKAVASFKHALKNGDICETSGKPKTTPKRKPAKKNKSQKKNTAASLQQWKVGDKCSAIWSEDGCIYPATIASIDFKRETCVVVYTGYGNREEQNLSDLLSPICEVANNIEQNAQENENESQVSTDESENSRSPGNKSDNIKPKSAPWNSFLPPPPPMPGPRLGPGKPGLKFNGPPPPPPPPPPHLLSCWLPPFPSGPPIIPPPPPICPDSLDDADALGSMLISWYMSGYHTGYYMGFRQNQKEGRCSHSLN

co-IP level with ZPR1 in SMA cells, % of normal cells [2]: 44.8%
Substance: senataxin (SETX), endogenous human, Q7Z333 1-2677
co-IP level with SMN in SMA cells, % of normal cells [1]: 25.8%
